From article PMC8488244

How the values were obtained:
[1] = biological target: GmCHS7:PDZlig-CeGFP (Glycine max) (UniProt P30081)
[2] = biological target: GmCHS7:PDZlig-CeGFP (Glycine max) (UniProt P30081); remark: listed apart in the source

Chain of UniProt P30081 (P30081 whole entry): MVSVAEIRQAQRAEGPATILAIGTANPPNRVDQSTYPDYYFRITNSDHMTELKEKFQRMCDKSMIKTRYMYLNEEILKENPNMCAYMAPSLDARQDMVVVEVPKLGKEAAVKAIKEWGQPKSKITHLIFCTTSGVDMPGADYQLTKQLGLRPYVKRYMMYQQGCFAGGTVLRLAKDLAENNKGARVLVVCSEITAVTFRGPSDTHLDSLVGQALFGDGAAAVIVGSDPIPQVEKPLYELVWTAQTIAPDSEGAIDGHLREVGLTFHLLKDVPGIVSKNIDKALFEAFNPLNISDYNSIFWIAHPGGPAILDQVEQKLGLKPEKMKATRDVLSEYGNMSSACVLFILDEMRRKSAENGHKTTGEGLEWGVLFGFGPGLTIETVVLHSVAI

titer of apigenin in strain DHF-2 (pYH153) compared to DHF-1 (pYH141) [1]: 1.1 fold
CHR ratio (CHR product to total CHS product) in E. coli BL21(DE3)-pYH153 [2]: 54.7%
Substance: GuCHR:PDZ-NeGFP (from UniProt Q61234 81-164)
